The supplement of paper PMC9112550, “Optimization of the antimicrobial peptide Bac7 by deep mutational scanning” (BMC Biology, 2022)

Test system: Escherichia coli TOP10
Test: shrunken log2 fold change of peptide-encoding DNA abundance (4.5 h post-induction vs induction); higher = less antimicrobial activity (less host growth inhibition)
Settings: time post-induction: 4.5 h; library: site-saturation at positions 5, 18, 19, 20
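Note: peptides expressed intracellularly from a pBAD plasmid library in pooled LB shake-flask culture, induced with 0.3% L-arabinose, DNA abundance read by NGS, three biological replicates, DESeq2 with apeglm shrinkage.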

Sequence	shrunken log2 fold change
RRIRGRPPRLPRPRPRPYHCPRP	-0.0643
RRIRGRPPRLPRPRPRPYHDPRP	-0.0405
RRIRGRPPRLPRPRPRPYIDPRP	0.093
RRIRGRPPRLPRPRPRPYKDPRP	-0.322
RRIRGRPPRLPRPRPRPYKLPRP	-0.481
RRIRGRPPRLPRPRPRPYLVPRP	0.15
RRIRGRPPRLPRPRPRPYLYPRP	-0.215
RRIRGRPPRLPRPRPRPYMHPRP	-0.355
RRIRGRPPRLPRPRPRPYMPPRP	-0.191
RRIRGRPPRLPRPRPRPYNYPRP	-0.129
RRIRGRPPRLPRPRPRPYRVPRP	-0.0183
RRIRGRPPRLPRPRPRPYSDPRP	-0.11
RRIRGRPPRLPRPRPRPYSLPRP	-0.158
RRIRGRPPRLPRPRPRPYTCPRP	-0.0226
RRIRGRPPRLPRPRPRPYTSPRP	-0.278
RRIRGRPPRLPRPRPRPYWLPRP	-0.0478
RRIRGRPPRLPRPRPRPYYCPRP	-0.172
RRIRGRPPRLPRPRPRPYYWPRP	-0.25
RRIRHRPPRLPRPRPRPACHPRP	-0.2
RRIRHRPPRLPRPRPRPADGPRP	-0.279
RRIRHRPPRLPRPRPRPAEHPRP	-0.144
RRIRHRPPRLPRPRPRPAFTPRP	-0.311
RRIRHRPPRLPRPRPRPAHPPRP	0.175
RRIRHRPPRLPRPRPRPAIDPRP	0.178
RRIRHRPPRLPRPRPRPAIKPRP	0.00883

Sequence	shrunken log2 fold change
RRIRHRPPRLPRPRPRPAKFPRP	-0.139
RRIRHRPPRLPRPRPRPALFPRP	-0.0554
RRIRHRPPRLPRPRPRPALLPRP	0.284
RRIRHRPPRLPRPRPRPAMKPRP	0.0279
RRIRHRPPRLPRPRPRPANFPRP	-0.0325
RRIRHRPPRLPRPRPRPANGPRP	-0.0837
RRIRHRPPRLPRPRPRPAPRPRP	0.749
RRIRHRPPRLPRPRPRPAPTPRP	0.294
RRIRHRPPRLPRPRPRPAQCPRP	0.101
RRIRHRPPRLPRPRPRPATEPRP	0.29
RRIRHRPPRLPRPRPRPATIPRP	-0.281
RRIRHRPPRLPRPRPRPATTPRP	-0.101
RRIRHRPPRLPRPRPRPCDRPRP	-0.239
RRIRHRPPRLPRPRPRPCEQPRP	-0.0166
RRIRHRPPRLPRPRPRPCGQPRP	0.015
RRIRHRPPRLPRPRPRPCHPPRP	-0.01
RRIRHRPPRLPRPRPRPCHRPRP	-0.126
RRIRHRPPRLPRPRPRPCHSPRP	-0.19
RRIRHRPPRLPRPRPRPCLIPRP	-0.11
RRIRHRPPRLPRPRPRPCMTPRP	0.0183
RRIRHRPPRLPRPRPRPCNIPRP	-0.236
RRIRHRPPRLPRPRPRPCNQPRP	-0.185
RRIRHRPPRLPRPRPRPCPTPRP	-0.258
RRIRHRPPRLPRPRPRPCQQPRP	-0.0541
RRIRHRPPRLPRPRPRPCRYPRP	-0.0657

Sequence	shrunken log2 fold change
RRIRHRPPRLPRPRPRPCSEPRP	0.0248
RRIRHRPPRLPRPRPRPCSRPRP	-0.231
RRIRHRPPRLPRPRPRPCTAPRP	0.0655
RRIRHRPPRLPRPRPRPCTNPRP	-0.249
RRIRHRPPRLPRPRPRPCTTPRP	-1.7
RRIRHRPPRLPRPRPRPCVQPRP	-0.131
RRIRHRPPRLPRPRPRPCWRPRP	0.0476
RRIRHRPPRLPRPRPRPCYMPRP	-0.494
RRIRHRPPRLPRPRPRPDADPRP	0.0435
RRIRHRPPRLPRPRPRPDAYPRP	0.027
RRIRHRPPRLPRPRPRPDDAPRP	0.0602
RRIRHRPPRLPRPRPRPDDRPRP	-0.144
RRIRHRPPRLPRPRPRPDEMPRP	0.0307
RRIRHRPPRLPRPRPRPDHNPRP	-0.956
RRIRHRPPRLPRPRPRPDKQPRP	0.0409
RRIRHRPPRLPRPRPRPDLMPRP	-0.175
RRIRHRPPRLPRPRPRPDMDPRP	0.0205
RRIRHRPPRLPRPRPRPDNFPRP	-0.0184
RRIRHRPPRLPRPRPRPDNLPRP	0.0139
RRIRHRPPRLPRPRPRPDPLPRP	-0.106
RRIRHRPPRLPRPRPRPDQIPRP	-0.0166
RRIRHRPPRLPRPRPRPDRCPRP	-0.205
RRIRHRPPRLPRPRPRPDSQPRP	-0.194
RRIRHRPPRLPRPRPRPDTAPRP	0.0194
RRIRHRPPRLPRPRPRPDTTPRP	-0.226

Sequence	shrunken log2 fold change
RRIRHRPPRLPRPRPRPDWTPRP	-0.0689
RRIRHRPPRLPRPRPRPDYIPRP	-0.0135
RRIRHRPPRLPRPRPRPEAEPRP	0.409
RRIRHRPPRLPRPRPRPEAPPRP	0.641
RRIRHRPPRLPRPRPRPECHPRP	-0.303
RRIRHRPPRLPRPRPRPEDHPRP	0.0753
RRIRHRPPRLPRPRPRPEEPPRP	0.0179
RRIRHRPPRLPRPRPRPEIEPRP	-0.0966
RRIRHRPPRLPRPRPRPEIHPRP	0.0389
RRIRHRPPRLPRPRPRPEKAPRP	-0.0238
RRIRHRPPRLPRPRPRPEKVPRP	-0.017
RRIRHRPPRLPRPRPRPELHPRP	0.00184
RRIRHRPPRLPRPRPRPEMEPRP	-0.108
RRIRHRPPRLPRPRPRPEMHPRP	0.0592
RRIRHRPPRLPRPRPRPEMQPRP	-0.000952
RRIRHRPPRLPRPRPRPENFPRP	-0.0249
RRIRHRPPRLPRPRPRPENYPRP	-0.327
RRIRHRPPRLPRPRPRPEPGPRP	-0.044
RRIRHRPPRLPRPRPRPEPHPRP	0.113
RRIRHRPPRLPRPRPRPEPIPRP	0.021
RRIRHRPPRLPRPRPRPEPMPRP	0.134
RRIRHRPPRLPRPRPRPERHPRP	0.0281
RRIRHRPPRLPRPRPRPESAPRP	0.368
RRIRHRPPRLPRPRPRPESCPRP	0.0512
RRIRHRPPRLPRPRPRPESVPRP	0.0222

Sequence	shrunken log2 fold change
RRIRHRPPRLPRPRPRPESWPRP	-0.00647
RRIRHRPPRLPRPRPRPETRPRP	0.013
RRIRHRPPRLPRPRPRPEVGPRP	0.0518
RRIRHRPPRLPRPRPRPEVLPRP	-0.0421
RRIRHRPPRLPRPRPRPEVSPRP	-0.0122
RRIRHRPPRLPRPRPRPEVWPRP	0.714
RRIRHRPPRLPRPRPRPFAPPRP	-0.0777
RRIRHRPPRLPRPRPRPFCDPRP	0.128
RRIRHRPPRLPRPRPRPFCFPRP	-0.215
RRIRHRPPRLPRPRPRPFDTPRP	-0.178
RRIRHRPPRLPRPRPRPFFCPRP	-0.16
RRIRHRPPRLPRPRPRPFGYPRP	-0.133
RRIRHRPPRLPRPRPRPFHEPRP	-0.2
RRIRHRPPRLPRPRPRPFKRPRP	0.0885
RRIRHRPPRLPRPRPRPFKSPRP	0.00748
RRIRHRPPRLPRPRPRPFLGPRP	0.0354
RRIRHRPPRLPRPRPRPFLQPRP	0.0325
RRIRHRPPRLPRPRPRPFNPPRP	-0.17
RRIRHRPPRLPRPRPRPFPRPRP	0.0685
RRIRHRPPRLPRPRPRPFQGPRP	-0.0278
RRIRHRPPRLPRPRPRPFQHPRP	-0.0182
RRIRHRPPRLPRPRPRPFSFPRP	-0.363
RRIRHRPPRLPRPRPRPFSGPRP	0.136
RRIRHRPPRLPRPRPRPFSQPRP	-0.302
RRIRHRPPRLPRPRPRPFTCPRP	-0.231

Sequence	shrunken log2 fold change
RRIRHRPPRLPRPRPRPFTEPRP	0.00246
RRIRHRPPRLPRPRPRPFTTPRP	-0.0869
RRIRHRPPRLPRPRPRPFWSPRP	-0.0841
RRIRHRPPRLPRPRPRPGAAPRP	0.324
RRIRHRPPRLPRPRPRPGCHPRP	-0.242
RRIRHRPPRLPRPRPRPGCMPRP	-0.0922
RRIRHRPPRLPRPRPRPGCPPRP	-0.0112
RRIRHRPPRLPRPRPRPGFWPRP	0.0409
RRIRHRPPRLPRPRPRPGFYPRP	-0.363
RRIRHRPPRLPRPRPRPGGAPRP	0.311
RRIRHRPPRLPRPRPRPGHFPRP	0.0387
RRIRHRPPRLPRPRPRPGHPPRP	-0.00757
RRIRHRPPRLPRPRPRPGHSPRP	-0.27
RRIRHRPPRLPRPRPRPGIDPRP	-0.0302
RRIRHRPPRLPRPRPRPGKMPRP	-0.423
RRIRHRPPRLPRPRPRPGKRPRP	-0.0157
RRIRHRPPRLPRPRPRPGLWPRP	0.0565
RRIRHRPPRLPRPRPRPGMEPRP	-0.0685
RRIRHRPPRLPRPRPRPGMNPRP	0.00489
RRIRHRPPRLPRPRPRPGMPPRP	0.47
RRIRHRPPRLPRPRPRPGMYPRP	-0.298
RRIRHRPPRLPRPRPRPGNMPRP	-0.121
RRIRHRPPRLPRPRPRPGPYPRP	-0.226
RRIRHRPPRLPRPRPRPGQLPRP	0.174
RRIRHRPPRLPRPRPRPGSNPRP	0.0117
